± gives the standard deviation of the averaged measurements.
Key:
Saccharomyces cerevisiae [1] = experiment: protein stability index of tFT-peptide fusion (C-terminal peptide) (PSI (0-1 scale)); higher = more stable (slower turnover)
Method: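 MPS profiling in S. cerevisiae of the tFT-X12 degron library: putative degron peptides plus stable controls, 12 aa, fused to the C-terminus of a sfGFP-mCherry timer. Cells are FACS-sorted into 8 mCherry/sfGFP bins and deep-sequenced. PSI runs from 0 (unstable) to 1 (stable). Backgrounds are wild type, das1Δ and doa10Δ at 30 °C, and wild type, das1Δ, cdc34-1 and cdc53-1 at 37 °C; 2-3 technical replicates each.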

Saccharomyces cerevisiae [2] = experiment: as above; conditions: genetic background: wild type; temperature: 30 C
[3] = genetic background: cdc34-1, temperature: 37 C
[4] = genetic background: cdc53-1, temperature: 37 C
[5] = genetic background: das1 deletion, temperature: 30 C
[6] = genetic background: das1 deletion, temperature: 37 C
[7] = genetic background: doa10 deletion, temperature: 30 C
[8] = genetic background: wild type, temperature: 30 C
[9] = genetic background: wild type, temperature: 37 C
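Also: PSI is a weighted mean of sequencing reads over stability bins, variants kept only with over 10 reads, mCherry proximal and sfGFP distal, peptide attached via GGGS linker.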

Row | Sequence | protein stability index (Saccharomyces cerevisiae [1]; [3]) | protein stability index (Saccharomyces cerevisiae [1]; [4]) | protein stability index (Saccharomyces cerevisiae [1]; [5]) | protein stability index (Saccharomyces cerevisiae [1]; [6]) | protein stability index (Saccharomyces cerevisiae [1]; [7]) | protein stability index (Saccharomyces cerevisiae [1]; [8]) | protein stability index (Saccharomyces cerevisiae [1]; [9]) | protein stability index (Saccharomyces cerevisiae [2])
1 | PFGPTFSPRPFR | 0.727 ± 0.048 | 0.767 ± 0.011 | 0.684 ± 0.015 | 0.7793 ± 0.0072 | 0.692 ± 0.023 | 0.701 ± 0.013 | 0.747 ± 0.0083 | 0.773 ± 0.022
2 | LFWCCVGLSVWR | 0.367 ± 0.063 | 0.474 ± 0.026 | 0.318 ± 0.022 | 0.5026 ± 0.0031 | 0.278 ± 0.0092 | 0.31 ± 0.016 | 0.494 ± 0.023 | 0.43 ± 0.011
3 | CGILACSVCTFF | 0.547 ± 0.071 | 0.6516 ± 0.0037 | 0.427 ± 0.027 | 0.6336 ± 0.0037 | 0.405 ± 0.016 | 0.436 ± 0.024 | 0.61 ± 0.023 | 0.509 ± 0.021
4 | VFFLVHFHLPMF | 0.531 ± 0.053 | 0.57 ± 0.041 | 0.414 ± 0.031 | 0.561 ± 0.01 | 0.394 ± 0.0077 | 0.401 ± 0.019 | 0.536 ± 0.03 | 0.455 ± 0.05
5 | VYRRKLDRLLCI | 0.561 ± 0.029 | 0.615 ± 0.025 | 0.512 ± 0.021 | 0.652 ± 0.0088 | 0.171 ± 0.012 | 0.182 ± 0.035 | 0.275 ± 0.005 | 0.332 ± 0.1
6 | CFVPFFLPLCAF | 0.0255 ± 0.0085 | 0.0285 ± 0.0074 | 0.0864 ± 0.03 | 0.109 ± 0.058 | 0.144 ± 0.0073 | 0.0733 ± 0.019 | 0.0588 ± 0.022 | 0.139 ± 0.016
7 | SCLRVYFSVVVS | 0.231 ± 0.013 | 0.295 ± 0.048 | 0.286 ± 0.037 | 0.389 ± 0.015 | 0.258 ± 0.0076 | 0.288 ± 0.017 | 0.36 ± 0.027 | 0.359 ± 0.031
8 | KIVNNTKKNKCH | 0.638 ± 0.048 | 0.684 ± 0.0087 | 0.652 ± 0.039 | 0.738 ± 0.012 | 0.153 ± 0.021 | 0.195 ± 0.046 | 0.26 ± 0.058 | 0.226 ± 0.025
9 | WVVWVLVGGFGG | 0.299 ± 0.022 | 0.42448 ± 0.00021 | 0.277 ± 0.036 | 0.4813 ± 0.0047 | 0.232 ± 0.0043 | 0.266 ± 0.021 | 0.449 ± 0.03 | 0.384 ± 0.032
10 | FLSLPLFILFLS | 0.229 ± 0.036 | 0.232 ± 0.041 | 0.283 ± 0.029 | 0.39 ± 0.02 | 0.1217 ± 0.00068 | 0.0821 ± 0.013 | 0.119 ± 0.0033 | 0.132 ± 0.014
11 | FRVILISACESV | 0.565 ± 0.016 | 0.582 ± 0.011 | 0.403 ± 0.032 | 0.5562 ± 0.0034 | 0.384 ± 0.032 | 0.397 ± 0.019 | 0.5385 ± 0.004 | 0.464 ± 0.0071
12 | VFFLRVHFWSFF | 0.377 ± 0.01 | 0.487 ± 0.011 | 0.368 ± 0.029 | 0.53367 ± 0.00033 | 0.138 ± 0.015 | 0.168 ± 0.0092 | 0.246 ± 0.02 | 0.2826 ± 0.0026
13 | FYSLVQAWSKAP | 0.721 ± 0.037 | 0.715 ± 0.01 | 0.648 ± 0.012 | 0.727 ± 0.021 | 0.3898 ± 0.0019 | 0.415 ± 0.027 | 0.627 ± 0.018 | 0.501 ± 0.018
14 | FMCCFWFFWLGF | 0.522 ± 0.041 | 0.518 ± 0.0095 | 0.421 ± 0.024 | 0.53 ± 0.0084 | 0.451 ± 0.006 | 0.438 ± 0.0098 | 0.501 ± 0.0061 | 0.459 ± 0.031
15 | KLLGVLFVLFPG | 0.486 ± 0.012 | 0.599 ± 0.034 | 0.367 ± 0.031 | 0.569 ± 0.01 | 0.324 ± 0.0068 | 0.336 ± 0.026 | 0.527 ± 0.018 | 0.443 ± 0.017

Source: the supplement of paper PMC10724198
